Paper PMC8229645

Experiments:
[1] = target: Human astrovirus 2 capsid spike (Spike 2) (human astrovirus serotype 2); assay: SEC
[2] = target: Human astrovirus 6 capsid spike (Spike 6) (human astrovirus serotype 6); assay: SEC

Substance: Human astrovirus 2 capsid spike (Spike 2) (domain or fragment)
- stoichiometry N [1]: 2

Substance: Human astrovirus 6 capsid spike (Spike 6) (domain or fragment)
- stoichiometry N [2]: 2
